According to patent US9260500B2, “Peptide and use thereof” (Takeda Pharmaceutical Company Limited, priority 2009, dated 2016):
Non-standard residues stand in square brackets, D forms with d. *: point of attachment. X4 = ((1S)-1-Carboxy-3-methylbutyl)carbamoyl, CC(C)C[C@H](NC(=O)*)C(=O)O; X2 = (tetrahydro-2H-pyran-4-ylmethyl)carbamoyl, O=C(NCC1CCOCC1)*; Phe(2,6-Me2) = Cc1cccc(C)c1C[C@H](N)C(=O)O; carbamoylmethylcarbamoyl = NC(=O)CNC(=O)*; tBuAla = CC(C)(C)C[C@H](N)C(=O)O; 4Pal = N[C@@H](Cc1ccncc1)C(=O)O; Cha = N[C@@H](CC1CCCCC1)C(=O)O; Iva = CC[C@](C)(N)C(=O)O; Aib = CC(C)(N)C(=O)O

What was measured:
human Y2 receptor [1] = target: T1, human Y2 receptor (Homo sapiens, UniProt P49146); assay: Receptor Binding Assay (RBA) for Human Y2, [125I]-PYY displacement on hY2R/CHO membrane fraction; conditions: IC50 of test compound/IC50 of PYY(3-36) (PYY(3-36) taken as 1)
T1 construct: expressed in transfected cells; membrane fraction
T1 sequence (P49146 1-381): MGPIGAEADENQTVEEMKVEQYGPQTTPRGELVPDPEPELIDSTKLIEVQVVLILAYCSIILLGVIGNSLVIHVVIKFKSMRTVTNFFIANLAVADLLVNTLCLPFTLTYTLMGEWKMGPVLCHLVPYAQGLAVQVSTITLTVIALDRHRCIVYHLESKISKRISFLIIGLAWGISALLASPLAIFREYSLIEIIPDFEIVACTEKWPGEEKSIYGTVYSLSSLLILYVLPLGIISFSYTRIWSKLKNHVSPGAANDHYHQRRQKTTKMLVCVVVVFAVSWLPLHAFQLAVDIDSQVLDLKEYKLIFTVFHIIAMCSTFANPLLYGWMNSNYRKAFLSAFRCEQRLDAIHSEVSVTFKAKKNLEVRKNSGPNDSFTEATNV
Method in brief: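 hY2R stably expressed in CHO/dhfr− cells; membrane fraction prepared from cells disrupted in 10 mM NaHCO3, 5 mM EDTA buffer with protease inhibitors. Binding read as displacement of [125I]-PYY.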

human Y2 receptor [2] = target: T1, human Y2 receptor; assay: Human Y2 Receptor G Protein Binding Assay (GBA), [35S]GTPγS; format: biochemical; conditions: EC50 of test compound/EC50 of PYY(3-36) (PYY3-36 taken as 1), hY2R/CHO membrane fraction
Method in brief: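 Agonism measured as [35S]GTPγS binding, read by GF/C filtration and scintillation counting after 120 min at room temperature, using human Y2 membranes at 1 μg protein/mL in pH 7.4 Tris/MgCl2/NaCl/GDP buffer. Compound serially diluted 100 μM–1 nM; EC50 normalized to PYY(3-36) (ratio = compound/PYY).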

male C57EL/6J mice = assay: 3-Days Continuous Subcutaneous Administration Test-1 (food intake suppressing activity); format: in vivo, mouse; conditions: 0.03 mg/kg/day, subcutaneous Alzet pump, food consumption over 3 days; relative to food intake suppression rate for PYY(3-36) (1 mg/kg/day) taken as 100%
Method in brief: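 Male […] mice, 12-13 weeks, received compound at 0.03 mg/kg/day by subcutaneous osmotic pump (50% DMSO vehicle), housed singly with free food access. Food consumed over 3 days measured; suppression expressed relative to PYY(3-36) (1 mg/kg/day) set as 100%.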

Row | RBA IC50 Ratio (human Y2 receptor [1]) | GBA EC50 Ratio (human Y2 receptor [2]) | Substance | food intake suppression rate (%) (male C57EL/6J mice)
1 | 0.82 | 0.82 | [(1S)-1-Carboxy-3-methylbutyl]carbamoyl-[D-Pro24, Pya(4)26, Cha27,36, Aib28,31, Lys30]-PYY(23-36) (X4-S[dP]R[4Pal][Cha][Aib]NK[Aib]TRQR[Cha]-NH2; SMILES CC(C)C[C@H](NC(=O)N[C@@H](CO)C(=O)N1CCC[C@@H]1C(=O)N[C@@H](CCCNC(=N)N)C(=O)N[C@@H](Cc1ccncc1)C(=O)N[C@@H](CC1CCCCC1)C(=O)NC(C)(C)C(=O)N[C@@H](CC(N)=O)C(=O)N[C@@H](CCCCN)C(=O)NC(C)(C)C(=O)N[C@H](C(=O)N[C@@H](CCCNC(=N)N)C(=O)N[C@@H](CCC(N)=O)C(=O)N[C@@H](CCCNC(=N)N)C(=O)N[C@@H](CC1CCCCC1)C(N)=O)[C@@H](C)O)C(=O)O) [compound No. 271] | 28
2 | 0.82 | 0.7 | (Tetrahydro-2H-pyran-4-ylmethyl)carbamoyl-[D-Pro24, Pya(4)26, Cha27,36, Aib28,31, Lys30]-PYY(23-36) (X2-S[dP]R[4Pal][Cha][Aib]NK[Aib]TRQR[Cha]-NH2; SMILES C[C@@H](O)[C@H](NC(=O)C(C)(C)NC(=O)[C@H](CCCCN)NC(=O)[C@H](CC(N)=O)NC(=O)C(C)(C)NC(=O)[C@H](CC1CCCCC1)NC(=O)[C@H](Cc1ccncc1)NC(=O)[C@H](CCCNC(=N)N)NC(=O)[C@H]1CCCN1C(=O)[C@H](CO)NC(=O)NCC1CCOCC1)C(=O)N[C@@H](CCCNC(=N)N)C(=O)N[C@@H](CCC(N)=O)C(=O)N[C@@H](CCCNC(=N)N)C(=O)N[C@@H](CC1CCCCC1)C(N)=O) [compound No. 325] | 47

The remaining lines, values behind:

Row | Substance | RBA IC50 Ratio (human Y2 receptor [1]) | GBA EC50 Ratio (human Y2 receptor [2]) | food intake suppression rate (%) (male C57EL/6J mice)
3 | Ac-[Glu23, D-Pro24, Pya(4)26, Cha27,36, Leu(Me)28, Lys30, Aib31]-PYY(23-36) (Ac-E[dP]R[4Pal][Cha][tBuAla]NK[Aib]TRQR[Cha]-NH2; SMILES CC(=O)N[C@@H](CCC(=O)O)C(=O)N1CCC[C@@H]1C(=O)N[C@@H](CCCNC(=N)N)C(=O)N[C@@H](Cc1ccncc1)C(=O)N[C@@H](CC1CCCCC1)C(=O)N[C@@H](CC(C)(C)C)C(=O)N[C@@H](CC(N)=O)C(=O)N[C@@H](CCCCN)C(=O)NC(C)(C)C(=O)N[C@H](C(=O)N[C@@H](CCCNC(=N)N)C(=O)N[C@@H](CCC(N)=O)C(=O)N[C@@H](CCCNC(=N)N)C(=O)N[C@@H](CC1CCCCC1)C(N)=O)[C@@H](C)O) [compound No. 169] | 0.48 | 0.86 | 55
4 | Carbamoylmethylcarbamoyl-[D-Pro24, Iva25, Pya(4)26, Cha27,36, Aib28,31, Lys30]-PYY(23-36) (carbamoylmethylcarbamoyl-S[dP][Iva][4Pal][Cha][Aib]NK[Aib]TRQR[Cha]-NH2; SMILES CC[C@](C)(NC(=O)[C@H]1CCCN1C(=O)[C@H](CO)NC(=O)NCC(N)=O)C(=O)N[C@@H](Cc1ccncc1)C(=O)N[C@@H](CC1CCCCC1)C(=O)NC(C)(C)C(=O)N[C@@H](CC(N)=O)C(=O)N[C@@H](CCCCN)C(=O)NC(C)(C)C(=O)N[C@H](C(=O)N[C@@H](CCCNC(=N)N)C(=O)N[C@@H](CCC(N)=O)C(=O)N[C@@H](CCCNC(=N)N)C(=O)N[C@@H](CC1CCCCC1)C(N)=O)[C@@H](C)O) [compound No. 331] | 1.7 | 1.7 | 35
5 | Ac-[D-Pro24, Pya(4)26, Cha27, Aib28,31, Lys30, Phe(2,6-Me2)36]-PYY(23-36) (Ac-S[dP]R[4Pal][Cha][Aib]NK[Aib]TRQR[Phe(2,6-Me2)]-NH2; SMILES CC(=O)N[C@@H](CO)C(=O)N1CCC[C@@H]1C(=O)N[C@@H](CCCNC(=N)N)C(=O)N[C@@H](Cc1ccncc1)C(=O)N[C@@H](CC1CCCCC1)C(=O)NC(C)(C)C(=O)N[C@@H](CC(N)=O)C(=O)N[C@@H](CCCCN)C(=O)NC(C)(C)C(=O)N[C@H](C(=O)N[C@@H](CCCNC(=N)N)C(=O)N[C@@H](CCC(N)=O)C(=O)N[C@@H](CCCNC(=N)N)C(=O)N[C@@H](Cc1c(C)cccc1C)C(N)=O)[C@@H](C)O) [compound No. 329] | 0.52 | 0.59 | 51
